From paper PMC6530869 come the findings set out here.

Common to all, as to conditions: SpdR and RtrB: 20 mM HEPES pH 7.8, 4 mM MgCl2, 37 mM KCl, 1 mM CaCl2, 0.75 mM DTT, 8% glycerol, 75 ug/ml BSA; RtrA: 10 mM Tris pH 7.6, 2 mM MgCl2, 50 mM KCl …
Data set [1] addresses T1, SpdR(D64E) D64E (Caulobacter crescentus (NA1000?)) (UniProt A0A0H3C6B9).
T1 sequence: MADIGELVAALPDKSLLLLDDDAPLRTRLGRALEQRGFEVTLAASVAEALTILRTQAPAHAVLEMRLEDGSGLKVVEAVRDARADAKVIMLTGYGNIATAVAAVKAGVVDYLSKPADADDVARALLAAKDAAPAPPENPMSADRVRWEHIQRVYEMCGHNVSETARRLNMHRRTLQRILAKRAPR
As to the kind of experiment: EMSA. (In general: Mobility shift assays separate free from complexed probe on a gel.)

Data set [2] deals with T2, RtrA (Caulobacter crescentus (NA1000?)) (UniProt A0A0H3CB76).
T2 sequence: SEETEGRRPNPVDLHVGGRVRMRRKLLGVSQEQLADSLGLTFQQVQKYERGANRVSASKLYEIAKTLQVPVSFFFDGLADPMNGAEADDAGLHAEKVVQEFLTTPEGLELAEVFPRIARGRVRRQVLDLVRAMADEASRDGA
As to the kind of experiment: EMSA.

Data set [3] addresses T3, RtrB (Caulobacter crescentus (NA1000?)) (UniProt A0A0H3C9Q5).
T3 sequence: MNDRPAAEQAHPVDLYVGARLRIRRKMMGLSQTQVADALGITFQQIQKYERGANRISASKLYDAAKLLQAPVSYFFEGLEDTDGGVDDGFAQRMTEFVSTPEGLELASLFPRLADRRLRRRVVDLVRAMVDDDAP
Put plainly: EMSA.

Data set [4] addresses T2, RtrA (Caulobacter crescentus (NA1000?)). As to the kind of experiment: competition.
Data set [5] addresses T3, RtrB (Caulobacter crescentus (NA1000?)). As to the kind of experiment: competition.

Consider “CTAGGGACTGCCATCTTCGGCTGTATTTCAGATTTGTTTCCGCATTGTGGCTGCGACGAAATGTCGCGGTACCCGCTTGTGCGCTGTTTTGACGCGATTTCGTCATTGACGGCTCTCCTCACGCGAGAACACTGTTCTTGTAGTGCTTGCTCCGATGGGCTGATTGGGCAAGCCAGAGGGGTGGGATGTCTGGTTACGA (double strand) [cspD promoter probe]”, for which the binding result in data set [1] was “binds”.

“TGGTGGTCCTGATCCTCCTGCAGCGACCGATCGTGCATCGCGCGCTGGTTCCCGCGCTCCTGCTCGCCTGGCTGGTCCTGAACGGGACGGACGTGATGCACTACAGCTAGGGCTCGGCGGCTCTGGTAAACAACCCAACCCCGATCAACGAAGGTTTAGAAAGCTTTAAGAGAAACGTTGCGAATTGTAAAATTCTTCTCTGGGTTGAAACCCATTTCGGGTGTATCGATGAGGTGTCGGGCCATTTATTGAGCGCGGACAGGATGTTGTCAGTG (double strand) [hfiA promoter probe]”: the binding entry in data set [2] is “binds”; in data set [3] it was “binds”; in data set [1], “no binding”.

Regarding “TGGTGGTCCTGATCCTCCTGCAGCGACCGATCGTGCATCGCGCGCTGGTTCCCGCGCTCCTGCTCGCCTGGCTGGTCCTGAACGGGACGGACGTGATGCACTACAGCTAGGGCTCGGCGGCTCTGGTAAACAACCCAACCCCGATCAACGAAGGTTTAGAAAGCTTTAAGAGAAACGTTGCGAATTGTAAAATTCTTCTCTGGGTTGAAACCCATTTCGGGTGTATCGATGAGGTGTCGGGCCATTTATTGAGCGCGGACAGGATGTTGTCAGTG (double strand) [unlabeled specific hfiA competitor]”, the binding entry in data set [4] and in data set [5] was “binds” each time.
